Two molecules from patent publication US20250263440A1, “CD38-BINDING AGENTS AND USES THEREOF” (PeptiDream Inc., priority 2019, published 2025) can be followed below.

Assay [1] concerns the target T1, Recombinant human CD38 protein (R&D Systems) (human, UniProt P28907 43-300). As to the kind of experiment: SPR (Biacore T200), single-cycle kinetics, CD38 immobilised on CM3 chip, 1:1 Binding model, 25 °C; figure legend names I-2 and the panel matches Table 4 (3.5*10^-8, rounded there). The procedure:
(§1) One of many useful technology for assessing CD38 binding is surface plasmon resonance (SPR). […] After the equilibration of Series S Sensor Chip CM3 (produced by cytiva: Former GE Healthcare) with Running Buffer (HBS-EP with 1% (v/v) DMSO), an EDC/NHS mixture was injected at a flow rate of […] for 4 minutes to thereby activate the functional groups on sensor chip. CD38 in 10 mM Acetate (pH5.5) was injected immobilized to at a flow rate of 5 L/min. For 4 minutes to immobilize the CD38 on the substrate surfaces of the sensor chip. Then Ethanolamine was injected at a flow rate of […] for 4 minutes. 1.0 M Ethanolamine (aq.) was injected at a flow rate of […] for 420 seconds for capping. 10 mM Peptides in DMSO were diluted to obtain 10 uM with Running Buffer, and prepared 100 nM, 50 nM, 25 nM, 10 nM, 5 nM of each peptide solutions (Peptide Samples).
(§2) Using these Peptide Samples, kinetics of peptides against CD38 was measured. The method adopted for sample measurement was a single-cycle kinetics method. The analysis was conducted using the evaluation software provided with Biacore T200. A DMSO correction curve obtained by solvent correction measurements was applied for the analysis. […]
(§3) KD values were calculated based on the association rate constant (ka) and dissociation rate constant (kd).
(SPR reads the build-up and loss of mass on a sensor chip optically.)

Assay [2] concerns the target T1, Recombinant human CD38 protein (R&D …). Briefly: SPR (Biacore T200), single-cycle kinetics, CD38 immobilised on CM3 chip, 1:1 Binding model, 25 °C; figure legend names I-2 and the panel matches Table 4 (3.6*10^5, rounded there). How it is done:
as §1, §2, §3

Assay [3] has the same target. Briefly: ELISA.
For assay [4] the target is unchanged. Briefly: SPR (Biacore T200), CD38 immobilised on CM3 chip, single-cycle kinetics. The procedure:
as §1, §2, §3

The target is the same in assay [5]. As to the kind of experiment: SPR (Biacore T200), single-cycle kinetics, CD38 immobilised on CM3 chip, 1:1 Binding model, 25 °C; figure legend names I-2 and the panel matches Table 4 (1.3*10^-2, rounded there). How it is done:
as §1, §2, §3

For assay [6] the target is unchanged. Briefly: SPR (Biacore T200), single-cycle kinetics, CD38 immobilised on CM3 chip, 1:1 Binding model, 25 °C; figure legend names I-1 and the panel matches Table 4 (7.7*10^5, rounded there). How it is done: as §1, §2, §3
Assay [7] shares this target. Briefly: SPR (Biacore T200), single-cycle kinetics, CD38 immobilised on CM3 chip, 1:1 Binding model, 25 °C; figure legend names I-1 and the panel matches Table 4 (2.3*10^-9, rounded there). The procedure:
as §1, §2, §3

The target is the same in assay [8]. As to the kind of experiment: SPR (Biacore T200), single-cycle kinetics, CD38 immobilised on CM3 chip, 1:1 Binding model, 25 °C; figure legend names I-1; Table 4 prints 1.8*10^-3 for this constant. The procedure:
as §1, §2, §3

For assay [9] the target is unchanged. As to the kind of experiment: ELISA. This is another data set of the same source. (In general: ELISA stands for enzyme-linked immunosorbent assay.)

Like-named read-outs stand apart in the source and are kept apart here. Positions of bridges follow the written chain, without caps; N, C: chain ends. Non-standard residues stand in square brackets, D forms with d. No end group written: not given here. Bip = N[C@@H](Cc1ccc(-c2ccccc2)cc1)C(=O)O; Ahp(2) = CCCCC[C@H](N)C(=O)O

B1: Compound I-2 (SEQ ID NO. 2) (peptide)
peptide: ALHXVLPXVWVC
modifications: not fully specified; MePhe (N-methyl-L-phenylalanine) at 4; Bph at 8; cyclic peptide (N-terminal ClAc-Ala cyclised with the C-terminal Cys), structure given as a drawing
notes: Printed as Ala Leu His MePhe Val Leu Pro Bph Val Trp Val Cys
For the molecule B1, the values for the dissociation constant Kd in [1] and in assay [4] were 35.4 nM and 35 nM, respectively. In addition, the kon in [2] was determined as 358000 M⁻¹ s⁻¹. The “Binding Assay (larger values indicate stronger binding)” value in [3] stood at 1.69. In assay [5], the koff stood at 0.0127 s⁻¹.

B2: Compound I-1 (SEQ ID NO. 1) (peptide)
peptide: {CH2CO}-AR[Ahp(2)]YHDGVL[Bip][Ahp(2)]DC
modifications: thioether N-13
notes: Ala Arg Ahp Tyr His Asp Gly Val Leu Bph Ahp Asp Cys
With B2, in assay [6], the on-rate constant (kon) is 769000 M⁻¹ s⁻¹. For the same molecule, the figures for the dissociation constant Kd in [7] and in assay [4] were 2.27 nM and 2.3 nM, respectively. In assay [8], the off-rate constant (koff) turned out to be 0.00175 s⁻¹. Besides, in assay [9], the “Binding Assay (larger values indicate stronger binding)” value was 1.97.

As usually defined, the Kd is the free concentration of one partner at which half of the binding sites on the other are occupied at equilibrium, for simple one-to-one binding. As a reminder, the kon is a measure of how fast the partners come together. What is called koff is a measure of how fast the partners let go of each other.
